According to the supplement of paper PMC6755084:

Tested on: F1*sub RNA substrate (template-directed ligation)
Experiment: fraction ligated after 30 min (ligated reads / total reads); higher = more ligase activity; sequences stand for … in GAGACCGCAACTGAAAAGTTGT…AGTTCTGCACGTAGAAGCAAAAGGC
Details: 42 °C
Outline: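 Oligo-pool templates underwent PCR amplification, T7 transcription and gel purification to yield ribozyme variants. Gel-separated ligated and unligated bands were converted to complementary DNA with barcoded primers and sequenced on a MiSeq, keeping core bases of quality ≥20. The ratio of ligated reads to total reads gave the fraction ligated for every variant.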

Row | Sequence | fraction ligated
1 | TATCTTGTCGTAAGACACTTTGGATGGTTGA [3d755] | 0.155
2 | TATCTTGTCGTAAGACACTTTGGTGGGTTGA [3d753] | 0.563
3 | TATCTTGTCGTAAGACATTTGGATGGGTTGA [3d750] | 0.806
4 | TATCTTGTCGTAAGACCTTTGGATGGGTTGA [3d749] | 0.757
5 | TATCTTGTCGTAAGCACTTTGGATGGGTTGA [3d747] | 0.743
6 | TATCTTGTCGTAGACACTTTGGATGGGTTGA [3d745] | 0.819
7 | TATCTTGTCTAAGACACTTTGGATGGGTTGA [3d743] | 0.742
8 | TATCTTGTGTAAGACACTTTGGATGGGTTGA [3d742] | 0.867
9 | TATCTTTCGTAAGACACTTTGGATGGGTTGA [3d740] | 0.837
10 | TATTTGTCGTAAGACACTTTGGATGGGTTGA [3d738] | 0.762
11 | TCACTGTCGTAAGACACTTTGGATGGGTTGA [3d5] | 0.621
12 | TCACTTGCGTAAGACACTTTGGATGGGTTGA [3d7] | 0.493
13 | TCACTTGTCGAAGACACTTTGGATGGGTTGA [3d10] | 0.748
14 | TCACTTGTCGTAAACACTTTGGATGGGTTGA [3d12] | 0.444
15 | TCACTTGTCGTAAGAACTTTGGATGGGTTGA [3d14] | 0.399
16 | TCACTTGTCGTAAGACACTTGGATGGGTTGA [3d17] | 0.419
17 | TCACTTGTCGTAAGACACTTTGATGGGTTGA [3d18] | 0.183
18 | TCACTTGTCGTAAGACACTTTGGAGGGTTGA [3d20] | 0.333
19 | TCACTTGTCGTAAGACACTTTGGATGGGTTA [3d22] | 0.427
20 | TCACTTGTCGTAAGACACTTTGGATGGGTTG [3d23] | 0.797
21 | TCACTTGTCGTAAGACACTTTGGATGGGTTGA [2d1] | 0.796
22 | TCACTTGTCGTAAGACACTTTGGATGGTTGA [3d21] | 0.709
23 | TCACTTGTCGTAAGACACTTTGGTGGGTTGA [3d19] | 0.0723

Row | Sequence | fraction ligated
24 | TCACTTGTCGTAAGACATTTGGATGGGTTGA [3d16] | 0.782
25 | TCACTTGTCGTAAGACCTTTGGATGGGTTGA [3d15] | 0.769
26 | TCACTTGTCGTAAGCACTTTGGATGGGTTGA [3d13] | 0.608
27 | TCACTTGTCGTAGACACTTTGGATGGGTTGA [3d11] | 0.765
28 | TCACTTGTCTAAGACACTTTGGATGGGTTGA [3d9] | 0.768
29 | TCACTTGTGTAAGACACTTTGGATGGGTTGA [3d8] | 0.662
30 | TCACTTTCGTAAGACACTTTGGATGGGTTGA [3d6] | 0.145
31 | TCATTGTCGTAAGACACTTTGGATGGGTTGA [3d4] | 0.164
32 | TCCTTGTCGTAAGACACTTTGGATGGGTTGA [3d3] | 0.687
33 | TTACTGTCGTAAGACACTTTGGATGGGTTGA [3d279] | 0.226
34 | TTACTTGCGTAAGACACTTTGGATGGGTTGA [3d281] | 0.0196
35 | TTACTTGTCGAAGACACTTTGGATGGGTTGA [3d284] | 0.131
36 | TTACTTGTCGTAAACACTTTGGATGGGTTGA [3d286] | 0.00498
37 | TTACTTGTCGTAAGAACTTTGGATGGGTTGA [3d288] | 0.0626
38 | TTACTTGTCGTAAGACACTTGGATGGGTTGA [3d291] | 0.305
39 | TTACTTGTCGTAAGACACTTTGATGGGTTGA [3d292] | 0.0869
40 | TTACTTGTCGTAAGACACTTTGGAGGGTTGA [3d294] | 0.125
41 | TTACTTGTCGTAAGACACTTTGGATGGGTTA [3d296] | 0.0531
42 | TTACTTGTCGTAAGACACTTTGGATGGGTTG [3d297] | 0.299
43 | TTACTTGTCGTAAGACACTTTGGATGGGTTGA [2d25] | 0.419
44 | TTACTTGTCGTAAGACACTTTGGATGGTTGA [3d295] | 0.323
45 | TTACTTGTCGTAAGACACTTTGGTGGGTTGA [3d293] | 0.031
46 | TTACTTGTCGTAAGACATTTGGATGGGTTGA [3d290] | 0.517

Row | Sequence | fraction ligated
47 | TTACTTGTCGTAAGACCTTTGGATGGGTTGA [3d289] | 0.229
48 | TTACTTGTCGTAAGCACTTTGGATGGGTTGA [3d287] | 0.00788
49 | TTACTTGTCGTAGACACTTTGGATGGGTTGA [3d285] | 0.00592
50 | TTACTTGTCTAAGACACTTTGGATGGGTTGA [3d283] | 0.147
51 | TTACTTGTGTAAGACACTTTGGATGGGTTGA [3d282] | 0.207
52 | TTACTTTCGTAAGACACTTTGGATGGGTTGA [3d280] | 0.0128
53 | TTATTGTCGTAAGACACTTTGGATGGGTTGA [3d278] | 0.076
54 | TTCACGTCGTAAGACACTTTGGATGGGTTGA [3d336] | 0.658
55 | TTCACTGCGTAAGACACTTTGGATGGGTTGA [3d338] | 0.782
56 | TTCACTGTCGAAGACACTTTGGATGGGTTGA [3d341] | 0.77
57 | TTCACTGTCGTAAACACTTTGGATGGGTTGA [3d343] | 0.8
58 | TTCACTGTCGTAAGAACTTTGGATGGGTTGA [3d345] | 0.788
59 | TTCACTGTCGTAAGACACTTGGATGGGTTGA [3d348] | 0.762
60 | TTCACTGTCGTAAGACACTTTGATGGGTTGA [3d349] | 0.653
61 | TTCACTGTCGTAAGACACTTTGGAGGGTTGA [3d351] | 0.327
62 | TTCACTGTCGTAAGACACTTTGGATGGGTTA [3d353] | 0.195
63 | TTCACTGTCGTAAGACACTTTGGATGGGTTG [3d354] | 0.726
64 | TTCACTGTCGTAAGACACTTTGGATGGGTTGA [2d28] | 0.795
65 | TTCACTGTCGTAAGACACTTTGGATGGTTGA [3d352] | 0.498
66 | TTCACTGTCGTAAGACACTTTGGTGGGTTGA [3d350] | 0.0639
67 | TTCACTGTCGTAAGACATTTGGATGGGTTGA [3d347] | 0.755
68 | TTCACTGTCGTAAGACCTTTGGATGGGTTGA [3d346] | 0.795
69 | TTCACTGTCGTAAGCACTTTGGATGGGTTGA [3d344] | 0.8

Row | Sequence | fraction ligated
70 | TTCACTGTCGTAGACACTTTGGATGGGTTGA [3d342] | 0.775
71 | TTCACTGTCTAAGACACTTTGGATGGGTTGA [3d340] | 0.774
72 | TTCACTGTGTAAGACACTTTGGATGGGTTGA [3d339] | 0.766
73 | TTCACTTCGTAAGACACTTTGGATGGGTTGA [3d337] | 0.344
74 | TTCACTTGCGAAGACACTTTGGATGGGTTGA [3d373] | 0.702
75 | TTCACTTGCGTAAACACTTTGGATGGGTTGA [3d375] | 0.356
76 | TTCACTTGCGTAAGAACTTTGGATGGGTTGA [3d377] | 0.52
77 | TTCACTTGCGTAAGACACTTGGATGGGTTGA [3d380] | 0.182
78 | TTCACTTGCGTAAGACACTTTGATGGGTTGA [3d381] | 0.055
79 | TTCACTTGCGTAAGACACTTTGGAGGGTTGA [3d383] | 0.0421
80 | TTCACTTGCGTAAGACACTTTGGATGGGTTA [3d385] | 0.0657
81 | TTCACTTGCGTAAGACACTTTGGATGGGTTG [3d386] | 0.571
82 | TTCACTTGCGTAAGACACTTTGGATGGGTTGA [2d30] | 0.777
83 | TTCACTTGCGTAAGACACTTTGGATGGTTGA [3d384] | 0.17
84 | TTCACTTGCGTAAGACACTTTGGTGGGTTGA [3d382] | 0.00525
85 | TTCACTTGCGTAAGACATTTGGATGGGTTGA [3d379] | 0.768
86 | TTCACTTGCGTAAGACCTTTGGATGGGTTGA [3d378] | 0.311
87 | TTCACTTGCGTAAGCACTTTGGATGGGTTGA [3d376] | 0.804
88 | TTCACTTGCGTAGACACTTTGGATGGGTTGA [3d374] | 0.736
89 | TTCACTTGCTAAGACACTTTGGATGGGTTGA [3d372] | 0.729
90 | TTCACTTGGTAAGACACTTTGGATGGGTTGA [3d371] | 0.708
91 | TTCACTTGTCAAGACACTTTGGATGGGTTGA [3d402] | 0.719
92 | TTCACTTGTCGAAACACTTTGGATGGGTTGA [3d417] | 0.0407

Row | Sequence | fraction ligated
93 | TTCACTTGTCGAAGAACTTTGGATGGGTTGA [3d419] | 0.45
94 | TTCACTTGTCGAAGACACTTGGATGGGTTGA [3d422] | 0.5
95 | TTCACTTGTCGAAGACACTTTGATGGGTTGA [3d423] | 0.17
96 | TTCACTTGTCGAAGACACTTTGGAGGGTTGA [3d425] | 0.157
97 | TTCACTTGTCGAAGACACTTTGGATGGGTTA [3d427] | 0.28
98 | TTCACTTGTCGAAGACACTTTGGATGGGTTG [3d428] | 0.78
99 | TTCACTTGTCGAAGACACTTTGGATGGGTTGA [2d33] | 0.775
100 | TTCACTTGTCGAAGACACTTTGGATGGTTGA [3d426] | 0.578
101 | TTCACTTGTCGAAGACACTTTGGTGGGTTGA [3d424] | 0.0265
102 | TTCACTTGTCGAAGACATTTGGATGGGTTGA [3d421] | 0.79
103 | TTCACTTGTCGAAGACCTTTGGATGGGTTGA [3d420] | 0.66
104 | TTCACTTGTCGAAGCACTTTGGATGGGTTGA [3d418] | 0.287
105 | TTCACTTGTCGAGACACTTTGGATGGGTTGA [3d416] | 0.206
106 | TTCACTTGTCGTAAAACTTTGGATGGGTTGA [3d442] | 0.623
107 | TTCACTTGTCGTAAACACTTGGATGGGTTGA [3d445] | 0.0492
108 | TTCACTTGTCGTAAACACTTTGATGGGTTGA [3d446] | 0.0177
109 | TTCACTTGTCGTAAACACTTTGGAGGGTTGA [3d448] | 0.0223
110 | TTCACTTGTCGTAAACACTTTGGATGGGTTA [3d450] | 0.0146
111 | TTCACTTGTCGTAAACACTTTGGATGGGTTG [3d451] | 0.177
112 | TTCACTTGTCGTAAACACTTTGGATGGGTTGA [2d35] | 0.646
113 | TTCACTTGTCGTAAACACTTTGGATGGTTGA [3d449] | 0.067
114 | TTCACTTGTCGTAAACACTTTGGTGGGTTGA [3d447] | 0.0202
